Source: paper PMC4414246

Legend:
Assay in all cases: fluorescence polarization
[1] = biological target: U1A E19F (UniProt P09012 10-89, E19F)
[2] = biological target: U1A E19A:Y13Q (UniProt P09012 10-89, Y13Q;E19A)
[3] = biological target: U1A E19N (UniProt P09012 10-89, E19N)
[4] = biological target: dK50dM51 E19S (UniProt P09012 10-89, E19S;del50-51)
[5] = biological target: U1A M51A:E19A (UniProt P09012 10-89, E19A;M51A)
[6] = biological target: dK50dM51 E19N (UniProt P09012 10-89, E19N;del50-51)
[7] = biological target: U1A M51N (UniProt P09012 10-89, M51N)
[8] = biological target: U1A L49A:N15V (UniProt P09012 10-89, N15V;L49A)
[9] = biological target: U1A L49N (UniProt P09012 10-89, L49N)
[10] = biological target: dK50dM51 E19K (UniProt P09012 10-89, E19K;del50-51)
[11] = biological target: U1A K50A (UniProt P09012 10-89, K50A)
[12] = biological target: dK50dM51 L49A (UniProt P09012 10-89, L49A;del50-51)
[13] = biological target: U1A E19A (UniProt P09012 10-89, E19A)
[14] = biological target: U1A M51A (UniProt P09012 10-89, M51A)
[15] = biological target: U1A M51A:Y13Q (UniProt P09012 10-89, Y13Q;M51A)
[16] = biological target: U1A E19S:Y13Q (UniProt P09012 10-89, Y13Q;E19S)
[17] = biological target: U1A L49A:E19A (UniProt P09012 10-89, E19A;L49A)
[18] = biological target: U1A L49A (UniProt P09012 10-89, L49A)
[19] = biological target: dK50dM51 N15A (UniProt P09012 10-89, N15A;del50-51)
[20] = biological target: U1A M51F (UniProt P09012 10-89, M51F)
[21] = biological target: U1A E19S:F56A (UniProt P09012 10-89, E19S;F56A)
[22] = biological target: U1A E19F:F56A (UniProt P09012 10-89, E19F;F56A)
[23] = biological target: U1A M51A:N15V (UniProt P09012 10-89, N15V;M51A)
[24] = biological target: dK50dM51 N16A (UniProt P09012 10-89, N16A;del50-51)

B1: TAR RNA (structured_RNA)
RNA: GGCAGAUCUGAGCCUGGGAGCUCUCUGCC
Question: For B1, which Kd [1] is on record?
Answer: 6.2 ± 0.8 µM

Question: And the Kd [2]?
Answer: 21.7 ± 5.3 µM

Question: What about the Kd [3] of the same binder?
Answer: 12 ± 0.9 µM

Question: What about the Kd [4] of the same binder?
Answer: 7 ± 1.9 µM

Question: What about the Kd [5] of the same binder?
Answer: 14.9 ± 2.5 µM

Question: What about the Kd [6] of the same binder?
Answer: 27.8 ± 3.2 µM

Question: What about the Kd [7] of the same binder?
Answer: 13.8 ± 1.6 µM

Question: What about the Kd [8] of the same binder?
Answer: 39.2 ± 9.6 µM

Question: What about the Kd [9] of the same binder?
Answer: 14.4 ± 2.1 µM

Question: And the Kd [10]?
Answer: 6.3 ± 1 µM

Question: And the Kd [11]?
Answer: 39.6 ± 12.2 µM

Question: What about the Kd [12] of the same binder?
Answer: 91.6 ± 39.7 µM

Question: What about the Kd [13] of the same binder?
Answer: 5.9 ± 0.8 µM

Question: What about the Kd [14] of the same binder?
Answer: 4.9 ± 0.6 µM

Question: What about the Kd [15] of the same binder?
Answer: 210 ± 84.3 µM

Question: What about the Kd [16] of the same binder?
Answer: 10.3 ± 2.8 µM

Question: And the Kd [17]?
Answer: 6.9 ± 0.8 µM

Question: And the Kd [18]?
Answer: 5.2 ± 0.5 µM

Question: What about the Kd [19] of the same binder?
Answer: 91.1 ± 8.8 µM

Question: And the Kd [20]?
Answer: 16.4 ± 2.3 µM

Question: What about the Kd [21] of the same binder?
Answer: 19.2 ± 1.4 µM

Question: And the Kd [22]?
Answer: 20.9 ± 3.3 µM

Question: What about the Kd [23] of the same binder?
Answer: 46 ± 13.4 µM

Question: And the Kd [24]?
Answer: 62.1 ± 5.4 µM
